What follows are binders tested against AHNAK1, Q09666 (assay: holdup assay). Settings: plain residues with an end cap or a label only (N-terminal biotin on a linker: ttds).
Chain of AHNAK1, Q09666 (Q09666 4-100): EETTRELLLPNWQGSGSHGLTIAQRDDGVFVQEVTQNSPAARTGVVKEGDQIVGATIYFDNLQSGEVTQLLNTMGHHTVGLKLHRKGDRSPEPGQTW
Parameters: key: below the threshold = too weak to quantify, mostly under pKd 3.1 to 4
With LDSQIQETSI [MAP4, P27816] the pKd was “below the threshold”.

These binders were tested against T1, ARHGAP21, Q5T5U3 (assay: holdup assay). Settings: plain residues with an end cap or a label only (N-terminal biotin on a linker: ttds).
T1 sequence (Q5T5U3 45-169, limits assumed, looked up): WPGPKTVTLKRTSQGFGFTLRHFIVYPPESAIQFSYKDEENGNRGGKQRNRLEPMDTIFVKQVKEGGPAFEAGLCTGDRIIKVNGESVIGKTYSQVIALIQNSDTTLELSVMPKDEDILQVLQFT
Parameters: key: below the threshold = too weak to quantify, mostly under pKd 3.1 to 4
With LDSQIQETSI [MAP4, P27816] the pKd was “below the threshold”.

These binders were tested against T2, DFNB31_1, Q9P202 (assay: holdup assay). Settings: plain residues with an end cap or a label only (N-terminal biotin on a linker: ttds).
T2 sequence (Q9P202 135-233, limits assumed, looked up): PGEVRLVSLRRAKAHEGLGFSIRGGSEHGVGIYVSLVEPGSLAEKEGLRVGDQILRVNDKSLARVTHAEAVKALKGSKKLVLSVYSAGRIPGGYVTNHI
Parameters: key: below the threshold = too weak to quantify, mostly under pKd 3.1 to 4
For LDSQIQETSI [MAP4, P27816], the pKd was 5.03.

What follows are binders tested against DLG2_2, Q15700 (assay: holdup assay). Settings: plain residues with an end cap or a label only (N-terminal biotin on a linker: ttds).
Chain of DLG2_2, Q15700 (Q15700 189-283): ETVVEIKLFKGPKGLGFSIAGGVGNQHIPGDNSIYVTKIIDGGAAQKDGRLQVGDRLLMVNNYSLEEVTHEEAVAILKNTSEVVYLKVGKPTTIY
Parameters: key: below the threshold = too weak to quantify, mostly under pKd 3.1 to 4
In the case of LDSQIQETSI [MAP4, P27816], the pKd is reported as 3.9.

Each binder was assayed against T3, DLG3_2, Q92796 (assay: holdup assay). Settings: plain residues with an end cap or a label only (N-terminal biotin on a linker: ttds).
T3 sequence (Q92796 221-321, limits assumed, looked up): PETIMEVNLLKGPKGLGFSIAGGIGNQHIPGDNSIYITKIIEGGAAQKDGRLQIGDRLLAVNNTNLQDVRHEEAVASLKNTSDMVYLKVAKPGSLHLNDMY
Parameters: key: below the threshold = too weak to quantify, mostly under pKd 3.1 to 4
Work on LDSQIQETSI [MAP4, P27816] yielded a pKd of 3.93.

These binders were tested against T4, DLG3_3, Q92796 (assay: holdup assay). Settings: plain residues with an end cap or a label only (N-terminal biotin on a linker: ttds).
T4 sequence (Q92796 374-475, limits assumed, looked up): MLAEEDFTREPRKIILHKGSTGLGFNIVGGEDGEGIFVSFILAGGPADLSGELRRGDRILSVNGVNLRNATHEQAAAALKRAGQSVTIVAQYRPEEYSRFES
Parameters: key: below the threshold = too weak to quantify, mostly under pKd 3.1 to 4
LDSQIQETSI [MAP4, P27816] showed a pKd of 3.78.

The binders below were run against DLG4_2, P78352 (assay: holdup assay). Settings: plain residues with an end cap or a label only (N-terminal biotin on a linker: ttds).
Chain of DLG4_2, P78352 (P78352 155-259): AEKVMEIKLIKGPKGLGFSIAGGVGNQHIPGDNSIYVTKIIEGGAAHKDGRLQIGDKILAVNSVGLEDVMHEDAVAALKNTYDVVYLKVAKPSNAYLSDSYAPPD
Parameters: key: below the threshold = too weak to quantify, mostly under pKd 3.1 to 4
With LDSQIQETSI [MAP4, P27816] the pKd was 4.18.

What follows are binders tested against FRMPD3, Q5JV73 (assay: holdup assay). Settings: plain residues with an end cap or a label only (N-terminal biotin on a linker: ttds).
Chain of FRMPD3, Q5JV73 (Q5JV73 12-100): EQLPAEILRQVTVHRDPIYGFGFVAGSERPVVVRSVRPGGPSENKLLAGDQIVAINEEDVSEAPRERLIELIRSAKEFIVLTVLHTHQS
Parameters: key: below the threshold = too weak to quantify, mostly under pKd 3.1 to 4
In the case of LDSQIQETSI [MAP4, P27816], the pKd is reported as “below the threshold”.

Each binder was assayed against GRASP, Q7Z6J2 (assay: holdup assay). Settings: plain residues with an end cap or a label only (N-terminal biotin on a linker: ttds).
Chain of GRASP, Q7Z6J2 (Q7Z6J2 96-193): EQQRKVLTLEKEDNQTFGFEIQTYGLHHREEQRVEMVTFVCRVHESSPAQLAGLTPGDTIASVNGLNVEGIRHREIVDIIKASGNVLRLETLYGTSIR
Parameters: key: below the threshold = too weak to quantify, mostly under pKd 3.1 to 4
For LDSQIQETSI [MAP4, P27816], the pKd was “below the threshold”.

What follows are binders tested against Inadl_6, Q8NI35 (assay: holdup assay). Settings: plain residues with an end cap or a label only (N-terminal biotin on a linker: ttds).
Chain of Inadl_6, Q8NI35 (Q8NI35 1058-1167): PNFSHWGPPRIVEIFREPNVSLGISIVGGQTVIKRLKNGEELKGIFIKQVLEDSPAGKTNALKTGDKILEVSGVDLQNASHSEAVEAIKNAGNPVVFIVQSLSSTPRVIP
Parameters: key: below the threshold = too weak to quantify, mostly under pKd 3.1 to 4
Work on LDSQIQETSI [MAP4, P27816] yielded a pKd of 4.13.

What follows are binders tested against LNX1_2, Q8TBB1 (assay: holdup assay). Settings: plain residues with an end cap or a label only (N-terminal biotin on a linker: ttds).
Chain of LNX1_2, Q8TBB1 (Q8TBB1 371-470): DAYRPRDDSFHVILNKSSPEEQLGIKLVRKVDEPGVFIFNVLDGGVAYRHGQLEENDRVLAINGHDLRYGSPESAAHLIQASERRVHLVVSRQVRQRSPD
Parameters: key: below the threshold = too weak to quantify, mostly under pKd 3.1 to 4
With LDSQIQETSI [MAP4, P27816] the pKd was “below the threshold”.

Each binder was assayed against T5, LRRC7, Q96NW7 (assay: holdup assay). Settings: plain residues with an end cap or a label only (N-terminal biotin on a linker: ttds).
T5 sequence (Q96NW7 1440-1537, limits assumed, looked up): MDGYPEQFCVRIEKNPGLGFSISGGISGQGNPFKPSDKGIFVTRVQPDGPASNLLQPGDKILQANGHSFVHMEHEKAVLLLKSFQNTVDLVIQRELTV
Parameters: key: below the threshold = too weak to quantify, mostly under pKd 3.1 to 4
For LDSQIQETSI [MAP4, P27816], the pKd was “below the threshold”.

What follows are binders tested against T6, MPP2, Q14168 (assay: holdup assay). Settings: plain residues with an end cap or a label only (N-terminal biotin on a linker: ttds).
T6 sequence (Q14168 180-250, limits assumed, looked up): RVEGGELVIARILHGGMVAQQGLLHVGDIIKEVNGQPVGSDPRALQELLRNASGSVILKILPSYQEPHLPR
Parameters: key: below the threshold = too weak to quantify, mostly under pKd 3.1 to 4
In the case of LDSQIQETSI [MAP4, P27816], the pKd is reported as “below the threshold”.

What follows are binders tested against NHERF2_2, Q15599 (assay: holdup assay). Settings: plain residues with an end cap or a label only (N-terminal biotin on a linker: ttds).
Chain of NHERF2_2, Q15599 (Q15599 142-238): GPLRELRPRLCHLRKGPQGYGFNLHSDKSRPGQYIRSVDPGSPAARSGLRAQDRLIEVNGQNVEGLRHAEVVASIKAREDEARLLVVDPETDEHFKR
Parameters: key: below the threshold = too weak to quantify, mostly under pKd 3.1 to 4
LDSQIQETSI [MAP4, P27816] was tested, and the pKd was 4.48.

These binders were tested against NHERF4_2, Q86UT5 (assay: holdup assay). Settings: plain residues with an end cap or a label only (N-terminal biotin on a linker: ttds).
Chain of NHERF4_2, Q86UT5 (Q86UT5 220-308): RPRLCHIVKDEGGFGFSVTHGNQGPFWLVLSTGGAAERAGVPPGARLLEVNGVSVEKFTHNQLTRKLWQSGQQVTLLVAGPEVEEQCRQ
Parameters: key: below the threshold = too weak to quantify, mostly under pKd 3.1 to 4
For LDSQIQETSI [MAP4, P27816], the pKd was “below the threshold”.

What follows are binders tested against PDZRN4_1, Q6ZMN7 (assay: holdup assay). Settings: plain residues with an end cap or a label only (N-terminal biotin on a linker: ttds).
Chain of PDZRN4_1, Q6ZMN7 (Q6ZMN7 213-318): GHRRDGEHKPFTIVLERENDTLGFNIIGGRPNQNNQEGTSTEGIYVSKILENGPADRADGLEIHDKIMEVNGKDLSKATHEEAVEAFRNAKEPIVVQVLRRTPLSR
Parameters: key: below the threshold = too weak to quantify, mostly under pKd 3.1 to 4
LDSQIQETSI [MAP4, P27816] was tested, and the pKd was 4.84.

These binders were tested against T7, PTPN13_1, Q12923 (assay: holdup assay). Settings: plain residues with an end cap or a label only (N-terminal biotin on a linker: ttds).
T7 sequence (Q12923 1088-1188, limits assumed, looked up): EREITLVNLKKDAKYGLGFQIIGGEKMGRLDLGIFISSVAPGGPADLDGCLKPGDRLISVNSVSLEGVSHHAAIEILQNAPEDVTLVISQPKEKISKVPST
Parameters: key: below the threshold = too weak to quantify, mostly under pKd 3.1 to 4
LDSQIQETSI [MAP4, P27816] was tested, and the pKd was “below the threshold”.

The binders below were run against PTPN3, P26045 (assay: holdup assay). Settings: plain residues with an end cap or a label only (N-terminal biotin on a linker: ttds).
Chain of PTPN3, P26045 (P26045 505-587): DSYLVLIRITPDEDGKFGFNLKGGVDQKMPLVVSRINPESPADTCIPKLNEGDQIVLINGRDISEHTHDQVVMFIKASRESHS
Parameters: key: below the threshold = too weak to quantify, mostly under pKd 3.1 to 4
LDSQIQETSI [MAP4, P27816] gave a pKd of 4.92.

Each binder was assayed against SCRIB_1, Q14160 (assay: holdup assay). Settings: plain residues with an end cap or a label only (N-terminal biotin on a linker: ttds).
Chain of SCRIB_1, Q14160 (Q14160 718-814): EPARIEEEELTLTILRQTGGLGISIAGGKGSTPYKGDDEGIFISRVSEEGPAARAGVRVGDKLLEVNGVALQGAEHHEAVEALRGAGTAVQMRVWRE
Parameters: key: below the threshold = too weak to quantify, mostly under pKd 3.1 to 4
LDSQIQETSI [MAP4, P27816] gave a pKd of 5.56.

Each binder was assayed against SCRIB_2, Q14160 (assay: holdup assay). Settings: plain residues with an end cap or a label only (N-terminal biotin on a linker: ttds).
Chain of SCRIB_2, Q14160 (Q14160 857-960): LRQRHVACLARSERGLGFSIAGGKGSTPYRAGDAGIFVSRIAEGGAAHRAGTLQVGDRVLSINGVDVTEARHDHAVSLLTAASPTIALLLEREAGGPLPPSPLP
Parameters: key: below the threshold = too weak to quantify, mostly under pKd 3.1 to 4
For LDSQIQETSI [MAP4, P27816], the pKd was 4.45.

The binders below were run against SCRIB_3, Q14160 (assay: holdup assay). Settings: plain residues with an end cap or a label only (N-terminal biotin on a linker: ttds).
Chain of SCRIB_3, Q14160 (Q14160 999-1103): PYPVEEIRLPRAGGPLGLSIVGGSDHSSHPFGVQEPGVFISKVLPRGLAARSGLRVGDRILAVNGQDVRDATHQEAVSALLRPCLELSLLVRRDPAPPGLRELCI
Parameters: key: below the threshold = too weak to quantify, mostly under pKd 3.1 to 4
For LDSQIQETSI [MAP4, P27816], the pKd was 5.17.

Each binder was assayed against T8, SHANK1, Q9Y566 (assay: holdup assay). Settings: plain residues with an end cap or a label only (N-terminal biotin on a linker: ttds).
T8 sequence (Q9Y566 658-767, limits assumed, looked up): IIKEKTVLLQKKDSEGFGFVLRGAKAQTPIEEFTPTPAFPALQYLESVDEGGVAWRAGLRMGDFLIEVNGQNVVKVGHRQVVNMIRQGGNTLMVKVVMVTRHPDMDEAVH
Parameters: key: below the threshold = too weak to quantify, mostly under pKd 3.1 to 4
LDSQIQETSI [MAP4, P27816] showed a pKd of 4.42.

The binders below were run against T9, SIPA1L2, Q9P2F8 (assay: holdup assay). Settings: plain residues with an end cap or a label only (N-terminal biotin on a linker: ttds).
T9 sequence (Q9P2F8 945-1036, limits assumed, looked up): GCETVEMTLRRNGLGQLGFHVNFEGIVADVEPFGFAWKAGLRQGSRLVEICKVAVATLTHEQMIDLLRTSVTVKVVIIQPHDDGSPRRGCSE
Parameters: key: below the threshold = too weak to quantify, mostly under pKd 3.1 to 4
For LDSQIQETSI [MAP4, P27816], the pKd was “below the threshold”.

These binders were tested against T10, SNTG2, Q9NY99 (assay: holdup assay). Settings: plain residues with an end cap or a label only (N-terminal biotin on a linker: ttds).
T10 sequence (Q9NY99 68-166, limits assumed, looked up): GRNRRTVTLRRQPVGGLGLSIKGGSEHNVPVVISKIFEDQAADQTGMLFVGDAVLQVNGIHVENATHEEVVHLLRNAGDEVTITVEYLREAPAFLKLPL
Parameters: key: below the threshold = too weak to quantify, mostly under pKd 3.1 to 4
For LDSQIQETSI [MAP4, P27816], the pKd was 5.22.

Each binder was assayed against T11, SYNJ2BP, P57105 (assay: holdup assay). Settings: plain residues with an end cap or a label only (N-terminal biotin on a linker: ttds).
T11 sequence (P57105 8-110, limits assumed, looked up): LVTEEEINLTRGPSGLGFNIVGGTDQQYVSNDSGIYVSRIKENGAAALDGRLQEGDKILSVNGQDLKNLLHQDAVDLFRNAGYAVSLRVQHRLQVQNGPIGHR
Parameters: key: below the threshold = too weak to quantify, mostly under pKd 3.1 to 4
In the case of LDSQIQETSI [MAP4, P27816], the pKd is reported as 4.95.

What follows are binders tested against T12, TJP3_3, O95049 (assay: holdup assay). Settings: plain residues with an end cap or a label only (N-terminal biotin on a linker: ttds).
T12 sequence (O95049 375-456, limits assumed, looked up): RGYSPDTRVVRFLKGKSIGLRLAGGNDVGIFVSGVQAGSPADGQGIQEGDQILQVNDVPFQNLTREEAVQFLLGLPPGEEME
Parameters: key: below the threshold = too weak to quantify, mostly under pKd 3.1 to 4
LDSQIQETSI [MAP4, P27816] was tested, and the pKd was “below the threshold”.

From publication PMC9482650, “Quantitative fragmentomics allow affinity mapping of interactomes” (Nature Communications, 2022)
